Measured values from patent publication US20260151494A1 (ARO BIOTHERAPEUTICS, published 2026).

Assays:
[1] = biological target: human CD71 on cells (SKBR3; SW620-rLuc-KRAS) (human, UniProt P02786 1-760); assay: cell-based or functional assay
[2] = biological target: T1, human CD71 extracellular domain (human, UniProt P02786 89-760); assay: primary ELISA screen, Screen 4, luminescence; further: test concentration or dose not given here
T1 construct: also called hCD71; CD71-ECD

[3] = biological target: T2, apical domain of human CD71 (human, UniProt P02786 189-383, limits assumed); assay: primary ELISA screen, Screen 4, luminescence; further: test concentration or dose not given here
T2 construct: domain: apical domain; Screen 4 panned against human apical domains; also called human apical domain
T2 sequence (P02786 189-383 limits assumed): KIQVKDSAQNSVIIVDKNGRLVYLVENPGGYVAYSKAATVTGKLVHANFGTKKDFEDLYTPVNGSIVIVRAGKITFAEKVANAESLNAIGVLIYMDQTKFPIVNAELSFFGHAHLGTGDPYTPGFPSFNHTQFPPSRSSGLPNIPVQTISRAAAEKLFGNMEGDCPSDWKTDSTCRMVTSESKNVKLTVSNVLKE

[4] = biological target: T1, human CD71 extracellular domain; assay: primary ELISA screen, Screen 4; signal on hCD71 over signal on HSA
[5] = biological target: T2, apical domain of human CD71; assay: primary ELISA screen, Screen 4; signal on apical domain over signal on HSA

human CD71 on cells (SKBR3; SW620-rLuc-KRAS), sequence (P02786 whole entry, the tested form may be a part): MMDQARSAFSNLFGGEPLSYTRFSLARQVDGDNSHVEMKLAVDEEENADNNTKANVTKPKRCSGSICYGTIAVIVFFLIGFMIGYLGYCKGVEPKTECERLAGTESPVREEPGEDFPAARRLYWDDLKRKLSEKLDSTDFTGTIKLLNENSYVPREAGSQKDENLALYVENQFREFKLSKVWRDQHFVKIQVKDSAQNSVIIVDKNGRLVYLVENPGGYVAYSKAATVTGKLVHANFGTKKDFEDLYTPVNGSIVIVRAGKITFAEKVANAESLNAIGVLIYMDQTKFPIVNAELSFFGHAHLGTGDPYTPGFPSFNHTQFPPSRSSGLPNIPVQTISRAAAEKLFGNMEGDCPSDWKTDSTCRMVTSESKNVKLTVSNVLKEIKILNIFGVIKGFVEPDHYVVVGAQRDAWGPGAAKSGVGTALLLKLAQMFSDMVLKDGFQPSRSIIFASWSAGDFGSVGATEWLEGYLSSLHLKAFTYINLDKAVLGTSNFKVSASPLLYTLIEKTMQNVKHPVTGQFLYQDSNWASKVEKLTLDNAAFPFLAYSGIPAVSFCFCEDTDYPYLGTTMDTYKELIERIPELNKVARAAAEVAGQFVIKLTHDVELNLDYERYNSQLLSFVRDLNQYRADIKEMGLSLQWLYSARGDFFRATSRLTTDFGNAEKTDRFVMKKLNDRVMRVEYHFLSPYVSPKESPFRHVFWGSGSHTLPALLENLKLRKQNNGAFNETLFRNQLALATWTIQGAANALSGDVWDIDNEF
T1 sequence (P02786 89-760): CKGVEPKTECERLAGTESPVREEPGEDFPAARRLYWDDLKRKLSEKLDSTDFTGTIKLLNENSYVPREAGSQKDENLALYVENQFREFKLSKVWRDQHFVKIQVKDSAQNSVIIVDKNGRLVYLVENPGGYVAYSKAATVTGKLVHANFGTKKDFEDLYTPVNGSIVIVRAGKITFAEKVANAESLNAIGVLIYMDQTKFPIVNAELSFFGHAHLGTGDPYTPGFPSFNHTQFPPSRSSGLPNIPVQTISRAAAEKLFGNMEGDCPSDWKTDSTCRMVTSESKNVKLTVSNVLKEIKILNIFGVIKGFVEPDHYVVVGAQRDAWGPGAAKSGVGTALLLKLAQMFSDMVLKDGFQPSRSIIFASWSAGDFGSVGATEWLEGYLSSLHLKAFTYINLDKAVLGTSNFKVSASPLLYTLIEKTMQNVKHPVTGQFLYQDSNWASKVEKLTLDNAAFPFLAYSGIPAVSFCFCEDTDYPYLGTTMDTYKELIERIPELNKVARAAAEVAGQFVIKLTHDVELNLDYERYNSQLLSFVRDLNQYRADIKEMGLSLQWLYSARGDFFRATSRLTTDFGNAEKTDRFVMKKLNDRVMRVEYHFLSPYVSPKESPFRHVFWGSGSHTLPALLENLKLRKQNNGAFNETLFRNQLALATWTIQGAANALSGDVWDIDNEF

Binder	LSA EC50 (luciferase reporter assay, SW620-rLuc-KRAS cells, 72 h) [1]	hCD71, RLU [2]	Apical domain, RLU [3]	hCD71:HSA [4]	Apical domain:HSA [5]
CD71-binding FN3 domain of SEQ ID NO: 400 conjugated to KRAS2 siRNA (designed binder, conjugated to KRAS2 tool siRNA; site and linker not stated) MLPAPKNLVVSRVTEDSARLSWTAPDAAFDSFFIGYLEPQPPGEAIHLFVPGSERSYDLTGLKPGTEYNVTIQGVKGGFPSGPLHATFTT	0.24 nM	–	–	–	–
CD71-binding FN3 domain of SEQ ID NO: 447 conjugated to KRAS2 siRNA (designed binder, conjugated to KRAS2 tool siRNA; site and linker not stated) MLPAPKNLVVSRVTEDSARLSWTAPDAAFDSFFIGYLEPQPPGEAIYLYVPGSERSYDLTGLKPGTEYNVTIQGVKGGFPSYPLTAQFTT	0.53 nM	–	–	–	–
CD71-binding FN3 domain of SEQ ID NO: 472 conjugated to KRAS2 siRNA (designed binder, conjugated to KRAS2 tool siRNA; site and linker not stated) MLPAPKNLVVSRVTEDSARLSWTAPDAAFDSFFIGYLEPQPPGEAIELYVPGSERSYDLTGLKPGTEYNVTIQGVKGGFPSLPLVATFTT	0.15 nM	–	–	–	–
CD71-binding FN3 domain of SEQ ID NO: 476 conjugated to KRAS2 siRNA (designed binder, conjugated to KRAS2 tool siRNA; site and linker not stated) MLPAPKNLVVSRVTEDSARLSWTAPDAAFDSFFIGYLEPQPPGEAIHLQVPGSERSYDLTGLKPGTEYNVTIQGVKGGFPSIPLIAVFTT	0.31 nM	–	–	–	–
CD71-binding FN3 domain of SEQ ID NO: 478 conjugated to KRAS2 siRNA (designed binder, conjugated to KRAS2 tool siRNA; site and linker not stated) MLPAPKNLVVSRVTEDSARLSWTAPDAAFDSFFIGYLEPQPPGEAIHLYVPGSERSYDLTGLKPGTEYNVTIQGVKGGFPSVPLIAKFTT	0.21 nM	–	–	–	–
CD71-binding FN3 domain of SEQ ID NO: 496 conjugated to KRAS2 siRNA (designed binder, conjugated to KRAS2 tool siRNA; site and linker not stated) MLPAPKNLVVSRVTEDSARLSWTAPDAAFDSFFIGYLEPQPPGEAIILWVPGSERSYDLTGLKPGTEYNVTIQGVKGGFPSVPLIAQFTT	0.22 nM	–	–	–	–
CD71-binding FN3 domain of SEQ ID NO: 508 conjugated to KRAS2 siRNA (designed binder, conjugated to KRAS2 tool siRNA; site and linker not stated) MLPAPKNLVVSRVTEDSARLSWTAPDAAFDSFFIGYLEPQPPGEAITLSVPGSERSYDLTGLKPGTEYNVTIQGVKGGFPSEPLIAIFTT	0.6 nM	–	–	–	–
CD71-binding FN3 domain of SEQ ID NO: 516 conjugated to KRAS2 siRNA (designed binder, conjugated to KRAS2 tool siRNA; site and linker not stated) MLPAPKNLVVSRVTEDSARLSWTAPDAAFDSFFIGYLEPQPPGEAISLWVPGSERSYDLTGLKPGTEYNVTIQGVKGGFPSSPLVAYFTT	0.6 nM	–	–	–	–
CD71-binding FN3 domain of SEQ ID NO: 529 conjugated to KRAS2 siRNA (designed binder, conjugated to KRAS2 tool siRNA; site and linker not stated) MLPAPKNLVVSRVTEDSARLSWTAPDAAFDSFFIGYLEPQPPGEAIDLYVPGSERSYDLTGLKPGTEYNVTIQGVKGGFPSLPLQAHFTT	0.52 nM	–	–	–	–
CD71-binding FN3 domain of SEQ ID NO: 546 (designed binder) MLPAPKNLVVSRVTEDSARLSWTAPDAAFDSFEIAYIEVNIQGEAIVLTVPGSERSYDLTGLKPGTEYYVHIGGVKGGPSSSPLSAIFTT	–	3.53e+06 RLU	4.4e+06 RLU	374 ratio	466 ratio
CD71-binding FN3 domain of SEQ ID NO: 552 (designed binder) MLPAPKNLVVSRVTEDSARLSWTAPDAAFDSFFIGYLEPQPPGEAIHLFVPGSERSYDLTGLKPGTEYNVTIQGVKGGFPSMPLSAIFTT	–	4.95e+06 RLU	5.7e+06 RLU	119 ratio	137 ratio
CD71-binding FN3 domain of SEQ ID NO: 547 (designed binder) MLPAPKNLVVSRVTEDSARLSWTAPDAAFDSFFIGYLEPQPPGEAIHLIVPGSERSYDLTGLKPGTEYNVTIQGVKGGFPSDPLVASFTT	–	4.59e+06 RLU	5.35e+06 RLU	277 ratio	322 ratio
CD71-binding FN3 domain of SEQ ID NO: 548 (designed binder) MLPAPKNLVVSRVTEDSARLSWTAPDAAFDSFFIGYLEPQPPGEAIYLFVPGSERSYDLTGLKPGTEYNVTIQGVKGGFPSMPLSAIFTT	–	4.73e+06 RLU	5.29e+06 RLU	230 ratio	257 ratio
CD71-binding FN3 domain of SEQ ID NO: 549 (designed binder) MLPAPKNLVVSRVTEDSARLSWTAPDAAFDSFFIGYLEPQPPGEAISLWVPGSERSYDLTGLKPGTEYNVTIQGVKGGFPSMPLSAIFTT	–	2.86e+06 RLU	3.49e+06 RLU	198 ratio	242 ratio
CD71-binding FN3 domain of SEQ ID NO: 550 (designed binder) MLPAPKNLVVSRVTEDSARLSWTAPDAAFDSFFIGYLEPQPPGEAIHLFVPGSERSYDLTGLKPGTEYNVTIQGVKGGFPSIPLYARFTT	–	4.79e+06 RLU	5.8e+06 RLU	141 ratio	170 ratio
CD71-binding FN3 domain of SEQ ID NO: 551 (designed binder) MLPAPKNLVVSRVTEDSARLSWTAPDAAFDSFEIAYFETCRTGEAIVLTVPGSERSYDLTGLKPGTEYWVQIGGVKGGNWSAPLSAIFTT	–	1.17e+06 RLU	4.07e+06 RLU	45 ratio	158 ratio
